Source: EP4541444A1 (Cytiva BioProcess R&D AB, dated 2025)

Target: T1, human serum albumin (human, UniProt P02768 25-609)
T1 construct: also called HSA
Experiment: SPR (Biacore), ligand immobilized on chip

B1: scFvHSA (scFv)
scFv: EVQLLESGGGLVQPGGSLRLSCAVSGIDLSNYAINWVRQAPGKGLEWIGIIWASGTTFYATWAKGRFTISRDNSKNTVYLQMNSLRAEDTAVYYCARTVPGYSTAPYFDLWGQGTLVTVSSGGGGSGGGGSGGGGSDIQMTQSPSSVSASVGDRVTITCQSSPSVWSNFLSWYQQKPGKAPKLLIYEASKLTSGVPSRFSGSGSGTDFTLTISSLQPEDFATYYCGGGYSSISDTTFGGGTKVEIKRTVQASGSHHHHHH
notes: also called anti-HSA scFv
Question: Does B1 bind?
Answer: binds
